The values below come from the supplement of paper PMC10598134.

± gives the standard deviation.

A short description of the data set: collision cross section of modified peptide (TIMS, N2, iRT-aligned); higher = larger / more extended gas-phase ion. The essentials:
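Synthetic peptide pools (~100 fmol/µL in 2% acetonitrile/0.1% formic acid, iRT standard spiked 1:40) were separated on a 120-min nanoflow C18 gradient at 60 °C. They were analysed on a timsTOF Pro/HT (dda-PASEF, nitrogen, ~2.4 mbar) and identified with MaxQuant. 1/K0 was calibrated with three reference ions and aligned run-wise to the median iRT peptide deviation. Collision cross section came from the Mason-Schamp equation, averaging 1–3 technical replicates of the most abundant feature per charge state.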

Setting [1] is: charge state: 2, modification: Succinyl.
The mark [2] stands for this setting: charge state: 3, modification: Succinyl.
Setting [3] is: charge state: 2, modification: Acetyl (K).
Setting [4] is: charge state: 3, modification: Acetyl (K).
Setting [5] is: charge state: 2, modification: Butyryl.
[6] abbreviates: charge state: 2, modification: Nitro (Y).
[7] abbreviates: charge state: 2, modification: Malonyl.
Where [8] appears, read: charge state: 2, modification: Propionyl.
Setting [9] is: charge state: 3, modification: Citrullination (R).
[10] abbreviates: charge state: 2, modification: Glutarylation.
Setting [11] is: charge state: 2, modification: Formyl.
[12] abbreviates: charge state: 3, modification: Formyl.
Setting [13] is: charge state: 2, modification: Dimethyl (K).
Setting [14] is: charge state: 3, modification: Dimethyl (K).
Setting [15] is: charge state: 2, modification: Phospho (Y).
Setting [16] is: charge state: 2, modification: GlyGly (K).
Where [17] appears, read: charge state: 3, modification: GlyGly (K).
[18] abbreviates: charge state: 3, modification: Butyryl.
Where [19] appears, read: charge state: 2, modification: Trimethyl (K).
The mark [20] stands for this setting: charge state: 3, modification: Trimethyl (K).
[21] abbreviates: charge state: 3, modification: Methyl (K).

On to “LQDVSGQLSSSKK [_LQDVSGQLSSSK(Crotonyl)K_]”, for which the collision cross section is, setting by setting: (charge state: 2, modification: Crotonyl) 402.23 ± 0.9 Å²; (charge state: 3, modification: Crotonyl) 469.03 ± 3.7 Å². Take “AAQASDLEKIHLDEK [_AAQASDLEK(Succinyl)IHLDEK_]”: the collision cross section runs as follows: under setting [1], 468.29 ± 1.1 Å²; under setting [2], 505.3 ± 1.6 Å². As for DFDTALKHYDK [_DFDTALK(Acetyl (K))HYDK_], the collision cross section reads like this: under setting [3], 401.2 ± 2 Å²; under setting [4], 463.37 ± 2.2 Å². The sequence “DYSSGFGGKYGVQADR [_DYSSGFGGK(Butyryl)YGVQADR_]” yielded a collision cross section under setting [5] of 438.71 ± 1.6 Å². Consider “GYDVIAQAQSGTGK [_GY(Nitro (Y))DVIAQAQSGTGK_]”, for which the collision cross section under setting [6] was 387.17 ± 0.17 Å².

In the case of “LQAAYAGDKADDIQK [_LQAAYAGDK(Malonyl)ADDIQK_]”, under setting [7], the collision cross section is reported as 436.07 ± 1.2 Å². As for “AGQKLIDVNHYAK [_AGQK(Acetyl (K))LIDVNHYAK_]”, the collision cross section under setting [3] is recorded as 429.91 ± 1.7 Å² and the collision cross section under setting [4] is reported as 479.89 ± 2.5 Å². The sequence ISALQGKLSK [_ISALQGK(Propionyl)LSK_] registered a collision cross section under setting [8] of 357.21 ± 0.33 Å². “GIGRGTVQALHATGAR [_GIGR(Citrullination (R))GTVQALHATGAR_]”: the collision cross section is given as 453.22 ± 0.95 Å² (charge state: 2, modification: Citrullination (R)) and 491.89 ± 1.9 Å² under setting [9]. With SGFGKFER [_SGFGK(Gluratylation)FER_], the collision cross section under setting [10] is 340.69 ± 0.69 Å². “SPSDSGYSYETIGKTTK [_SPSDSGYSYETIGK(Formyl)TTK_]”: the collision cross section by setting is: under setting [11], 446.06 ± 0.77 Å²; under setting [12], 518.69 ± 1.8 Å².

Take “GTVPDDAVEALADSLGKK [_GTVPDDAVEALADSLGK(Malonyl)K_]”: the collision cross section under setting [7] came out at 454.67 ± 1.4 Å². Consider “GSLEKGSPEDK [_GSLEK(Dimethyl (K))GSPEDK_]”, for which the collision cross section is 362.2 ± 0.83 Å² under setting [13] and 433.68 ± 2.1 Å² under setting [14]. The sequence VHATSTYR [_VHATSTY(Phospho (Y))R_] gave a collision cross section under setting [15] of 330.17 ± 0.75 Å² and a collision cross section (charge state: 3, modification: Phospho (Y)) of 411.28 Å². Take “DTGEKLTVAENEAETK [_DTGEK(GlyGly (K))LTVAENEAETK_]”: the collision cross section reads like this: under setting [16], 443.91 ± 1.6 Å²; under setting [17], 490.28 ± 1.9 Å².

As to VETTVTSLKTK [_VETTVTSLK(Butyryl)TK_], the collision cross section under setting [5] was 389.24 ± 1.3 Å². With “VLTANSNPSSPSAAKR [_VLTANSNPSSPSAAK(GlyGly (K))R_]”, the collision cross section runs as follows: under setting [16], 445.95 ± 0.95 Å²; under setting [17], 511.93 ± 0.35 Å². The sequence “TQAYQDQKPGTSGLR [_TQAYQDQK(Formyl)PGTSGLR_]” gave a collision cross section under setting [11] of 427.08 ± 0.79 Å².

For the sequence “LQEKVESAQSEQK [_LQEK(Dimethyl (K))VESAQSEQK_]”, the collision cross section by setting is: under setting [13], 412.95 ± 1.6 Å²; under setting [14], 455.71 ± 2.1 Å².

The sequence “LQDVSGQLSSSKK [_LQDVSGQLSSSK(Succinyl)K_]” came in with a collision cross section under setting [1] of 402.37 ± 0.79 Å² and a collision cross section under setting [2] of 468.7 ± 14 Å². Under setting [10], “GSLEKGSPEDK [_GSLEK(Gluratylation)GSPEDK_]” displayed a collision cross section of 373.46 ± 0.99 Å². As for “PASGAGAGAGAGKR [_PASGAGAGAGAGK(Butyryl)R_]”, the collision cross section runs as follows: under setting [5], 358.98 ± 1.3 Å²; under setting [18], 461.52 ± 2.9 Å².

With “LTEKELAEAASK [_LTEK(Propionyl)ELAEAASK_]”, under setting [8], the collision cross section was 389.08 ± 0.49 Å².

With “TEVLSPNSKVESK [_TEVLSPNSK(Butyryl)VESK_]”, the collision cross section turned out to be 418.57 ± 0.77 Å² under setting [5] and 463.23 ± 20 Å² under setting [18].

On to “DVNAAIAAIKTK [_DVNAAIAAIK(Gluratylation)TK_]”, for which the collision cross section amounted to 410.15 ± 0.99 Å² under setting [10] and 471.67 ± 2.5 Å² (charge state: 3, modification: Glutarylation). For the sequence LGSPSGKTGTCR [_LGSPSGK(Malonyl)TGTCR_], the collision cross section under setting [7] was 365.24 ± 0.013 Å². In the case of “IINEPTAAAIAYGLDKK [_IINEPTAAAIAYGLDK(Succinyl)K_]”, the collision cross section reads like this: under setting [1], 465.22 ± 1.4 Å²; under setting [2], 564.64 ± 0.073 Å². For the sequence “PASGAGAGAGAGKR [_PASGAGAGAGAGK(Trimethyl (K))R_]”, the collision cross section reads like this: under setting [19], 392.96 ± 2.2 Å²; under setting [20], 465.02 ± 1.8 Å². Take “DSSPTTNSKLSALQR [_DSSPTTNSK(Formyl)LSALQR_]”: the collision cross section came out at 427.17 ± 1.8 Å² under setting [11] and 491.37 ± 1.3 Å² under setting [12].

With “SYSVGASGSSSR [_SY(Phospho (Y))SVGASGSSSR_]”, the collision cross section under setting [15] worked out at 356.68 ± 0.65 Å².

Turning to “DNNNSNNRGSYNR [_DNNNSNNR(Citrullination (R))GSYNR_]”, the collision cross section under setting [9] is 460.73 ± 2.9 Å².

Consider “ASDTSSETVFGKR [_ASDTSSETVFGK(Acetyl (K))R_]”, for which the collision cross section reads like this: under setting [3], 397.17 ± 0.32 Å²; under setting [4], 476.65 ± 0.87 Å². “SEASSEFAKK [_SEASSEFAK(Gluratylation)K_]” displayed a collision cross section under setting [10] of 358.01 ± 0.65 Å².

On to “PASGAGAGAGAGKR [_PASGAGAGAGAGK(Methyl (K))R_]”, for which the collision cross section runs as follows: (charge state: 2, modification: Methyl (K)) 381.78 ± 0.91 Å²; under setting [21], 459.46 ± 3.9 Å². Consider “AGQKLIDVNHYAK [_AGQK(GlyGly (K))LIDVNHYAK_]”, for which the collision cross section amounted to 433.04 ± 1.4 Å² under setting [16] and 485.98 ± 1.6 Å² under setting [17].

Regarding GEVQVSDKER [_GEVQVSDK(Dimethyl (K))ER_], the collision cross section by setting is: under setting [13], 362.93 ± 0.58 Å²; under setting [14], 422.58 ± 1.6 Å².

Turning to “GEVGAGAGPGAQAGPSAKR [_GEVGAGAGPGAQAGPSAK(Biotin)R_]”, the collision cross section reads like this: (charge state: 2, modification: Biotin) 440.5 ± 1.2 Å²; (charge state: 3, modification: Biotin) 470.58 ± 2.6 Å². Turning to “AAINQKLIETGER [_AAINQK(Trimethyl (K))LIETGER_]”, the collision cross section runs as follows: under setting [19], 420.64 ± 0.75 Å²; under setting [20], 472.14 ± 3.7 Å².

As to “VSPASSVDSNIPSSQGYKK [_VSPASSVDSNIPSSQGYK(Succinyl)K_]”, the collision cross section reads like this: under setting [1], 467.79 ± 1.1 Å²; under setting [2], 548.84 ± 1.1 Å². As for “GETASKLQSEISR [_GETASK(Acetyl (K))LQSEISR_]”, the collision cross section by setting is: under setting [3], 386.09 ± 2 Å²; under setting [4], 464.45 ± 0.086 Å². As for “DDSFLGKLGGTLAR [_DDSFLGK(Succinyl)LGGTLAR_]”, the collision cross section is reported as 412.99 ± 0.37 Å² under setting [1] and 489.32 ± 3.3 Å² under setting [2].

For the sequence “TQDQISNIKYHEEFEK [_TQDQISNIK(Methyl (K))YHEEFEK_]”, the collision cross section under setting [21] came to 547.22 ± 0.37 Å².

With YHEDIFGLTLR [_Y(Nitro (Y))HEDIFGLTLR_], the collision cross section by setting is: under setting [6], 391.96 ± 0.8 Å²; (charge state: 3, modification: Nitro (Y)) 465.92 ± 0.23 Å².

For “TEVLSPNSKVESK [_TEVLSPNSK(Acetyl (K))VESK_]”, the collision cross section worked out at 411.3 ± 1.6 Å² under setting [3] and 448.45 ± 2.4 Å² under setting [4]. In turn, “DLSTVEALQNLKNLK [_DLSTVEALQNLK(Dimethyl (K))NLK_]” displayed a collision cross section under setting [13] of 476.15 ± 1.7 Å² and a collision cross section under setting [14] of 513.29 ± 0.57 Å².
